Measured values: publication PMC7966918 (Cell Research, 2021)

Legend:
[1] = target: T1, SARS-CoV-2 RBD (residues Arg319–Phe541) (SARS-CoV-2, UniProt P0DTC2); test: SPR; conditions: both partners purified
[2] = target: T1, SARS-CoV-2 RBD (residues Arg319–Phe541); test: cell-based or functional assay

B1: P5A-1B9 (full-length IgG) (antibody, V domains shown)
VH: QVQLQESGPGLVKPSETLSLTCTVSGGSISSYYWSWIRQPPGKGLEWIGYISYSGSTNYNPSLKSRVTISLDTSKNQFSLKLSSVTAADTAVYYCASNGQYYDILTGQPPDYWYFDLWGRGTLVTVSS
VL: not shown
- Kd [1]: 0.75 nM
- other [2]: 43.8%

B2: P2B-1A10 (full-length IgG) (antibody, V domains shown)
VH: EVQLVESGGGLIQPGGSLRLSCAASGFTVSSNYMSWVRQAPGKGLEWVSVIYSGGSTYYADSVKGRFTISRDNSKNTLYLQMNSLRAEDTAVYYCAREGPKSITGTAFDIWGQGTIVTVSS
VL: DIQMTQSPSSLSASVGDRVTITCQASQDISNYFNWYQQKPGKAPKLLIYDASNLETGVPSRFSGSGSGTDFTFTISSLQPEDIATYYCQQYDNLPMYTFGQGTKLEIK
- Kd [1]: 50.8 nM
- other [2]: 81.8%

B3: P5A-2G7 (full-length IgG) (antibody, V domains shown)
VH: QVQLQESGPGLVKPSETLSLTCTVSGDSVSSGSYYWSWIRQPPGKGLEWIGYIYYSGSTNYNPSLKSRVTISVDTSKNQFSLKLSSVTAADTAVYYCARERCYYGSGRAPRCVWFDPWGQGTLVTVSS
VL: QSALTQPASVSGSPGQSITISCTGTSSDVGGYNYVSWYQQHPGKAPKLMIYDVSNRPSGVSNRFSGSKSGNTASLTISGLQAEDEADYYCSSYTSSSTLVVFGGGTKLTVL
- Kd [1]: 3.55 nM
- other [2]: 57.2%

B4: P5A-2F11 (full-length IgG) (antibody, V domains shown)
VH: QVQLVQSGAEVKKPGASVKVSCKASGYTFTSYDINWVRQATGQGLEWMGWMNPNSGNTGYAQKFQGRVTMTRNTSISTAYMELSSLRSEDTAVYYCARYIVVVPAAKGFDPWGQGTLVTVSS
VL: not shown
- Kd [1]: 5.33 nM
- other [2]: 56.2%

B5: P5A-1B6 (full-length IgG) (antibody, V domains shown)
VH: QVQLVESGGGVVQPGRSLRLSCAASGFTFSSYAMHWVRQAPGKGLEWVAVISYDGSNKYYADSVKGRFTISRDNSKNTLYLQMNSLRAEDTAVYYCARDGQAITMVQGVIGPPFDYWGQGTLVTVSS
VL: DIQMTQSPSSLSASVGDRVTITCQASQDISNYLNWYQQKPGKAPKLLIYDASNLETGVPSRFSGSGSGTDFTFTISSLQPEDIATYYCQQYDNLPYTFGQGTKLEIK
- Kd [1]: 1.01 nM
- other [2]: 76%

B6: P5A-1B8 (full-length IgG) (antibody, V domains shown)
VH: EVQLVESGGGLIQPGGSLRLSCAASGFTVSSNYMSWVRQAPGKGLEWVSVIYPGGSTFYADSVKGRFTISRDNSKNTLYLQMNSLRAEDTAVYYCARETLAFDYWGQGTLVTVSS
VL: DIQLTQSPSFLSASVGDRVTITCRASQGISSYLAWYQQKPGKAPKLLIYAASTLQSGVPSRFSGSGSGTEFTLTISSLQPEDFATYYCQQLNSYPPAFGGGTKVEIK
- Kd [1]: 1.09 nM
- other [2]: 79.6%

B7: P5A-3C12 (full-length IgG) (antibody, V domains shown)
VH: QITLKESGPTLVKPTQTLTLTCTFSGFSLSTSGVGVGWIRQPPGKALEWLALIYWDDDKRYSPSLKSRLTITKDTSKNQVVLTMTNMDPVDTATYYCAHSLFLTVGYSSSWSPFDYWGQGTLVTVSS
VL: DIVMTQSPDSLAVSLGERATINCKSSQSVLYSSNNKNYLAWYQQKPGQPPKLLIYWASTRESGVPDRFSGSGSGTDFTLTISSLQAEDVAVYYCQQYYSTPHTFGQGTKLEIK
- Kd [1]: 1.03 nM
- other [2]: 54.5%

B8: P2B-1A1 (full-length IgG) (antibody, V domains shown)
VH: QVQLQESGPGLVKPSETLSLTCTVSGGSISSYYWSWIRQPPGKGLEWIGYIYYSGSTNYNPSLKSRVTISVDTSKKQFSLKLSSVTAADTAVYYCARLERDWPLDAFDIWGQGTMVTVSS
VL: QSALTQPASVSGSPGQSITISCTGTSSDVGGYNYVSWYQQHPGKAPKFMIYDVSKRPSGVSNRFSGSKSGNTASLTISGLQAEDEADYYCSSYTSNNTFAFGGGTKLTVL
- Kd [1]: 27 nM
- other [2]: -9.7%

B9: P5A-2G9 (full-length IgG) (antibody, V domains shown)
VH: QVQLVESGGGVVQPGRSLRLSCAASGFTFSSYGMHWVRQAPGKGLEWVAVIWYDGSNKYYADSVKGRFTISRDNSKNTLYLQMNSLRAEDTAVYYCARWFHTGGYFDYWGQGTLVTVSS
VL: QPVLTQPPSSSASPGESARLTCTLPSDINVSSYNIYWYQQKPGSPPRYLLYYYSDSDKGQGSGVPSRFSGSKDASANTGILLISGLQSEDEADYYCMIWPSNALYVFGTGTKVTVL
- Kd [1]: 6.98 nM
- other [2]: 84.9%
